The DeepSol protein solubility set

Test: soluble on expression in E. coli; label from the status in PepcDB or PDB records

Row | Sequence | soluble on expression in E. coli
1 | MSAEYGQYGYYGGAGGAQTTTTPAAALAASIPATSVYGEQRPTFSEDGTGAPYSTILNLVGSAAVNSDISYDTSSKDPHMIRARVFIGNIARAIITRDDIIELFRPFGKIIAVNYFAQQGFGFVQFNEAGSADESCRSLNGMSWKACCLDVHLAMLGSLRKPTGNEGRQGNTIAPAPLPVGKPLTQHAVDTSAQSAKRPYEDEEYEIFKQNKRNKQFANGDTTINEQLAPNEMCDTMVCGYCRFVTSDFEEFKEHRIAGCNKYKDPEEPRHRLKCATCSQRFLGAWGLLEHLTDFHRMLLYTEEKMTPNDLAQMRGGSVSTPSSIPETPASGSAAPAAPNSANSTPSHHIVEGAPLSYSSNNGTPQI | not soluble
2 | MSAISPDTKSFAIPTLADEGSSSKPASSLDLPKHESIRFKPIKTLASRIDGSEYYDEASMEKVMEMLEIGRTDEAVAYADTLYSNIIDDEQQDIVTIAEYVKILVVLRQWRRISHIIARGNYHQIHIVFAYYAATALFQRKLYEDVAELSVGHLLPSNGQIGPLPVRTLSQVTGRYVEEERMKYSFANMAELDNSSKKLRMVPALMITIAESFLKLMNRDAAMICINYALSLDNTTLHVERLMAKYNLVEPAMWEKYRKVRNEQLKLHEGNHDPRILMERAQRAYEMGRFRETKKITDELFDLFGPHPECIILRIHCLTMLKDSRSLLELGHQLVSDDPHIPLPWYCVAMYYYSIGANSRARNFISKCTMMDSTFAEGWVAFGHILHYEVEHEQSMSCYYRASKLVDKSSEPFLYTSLQYSTHSQKLSKKFMGEAVARAPNDPLIRHEEACVAYTAKSYAEADILFRTVLYMVTETDEIIPIEEVLKKKIDDFWHPMLNNIGHIARRQGRLNEAIMFYQKAIRMEPKFVDAIASTALCYAVLGNIDKATEFFNKALAIDPFNETIRQCLSKMIQASKESYSVDQQTLPPAYNSETYFGAQEILPYCAIRKPRNDGFVVPSIVSSSQPFMSMLRDRLRRQDQLYAQEPDNDAGNQV | not soluble
3 | MSALASKLFAKCAAGGRALQSQAVRQFSAYPIDDSMFGLNDEEIALRQSIRQFADKELAPYADKIDKDNGWDQLRPFWKKLGDQGLLGITAPAEYGGSGMNYFSHVIAMEELSRAAGGIALSYGAHSNLCINQIVRNGSEEQRKKYLPKLISGEHMGALAMSEAQAGSDVVSMKLRAEKKGDKYVLNGTKFWITNGPDADVLVVYAKTDPSKHQHGITCFLVEKNTPGFSQSPKLDKLGMRGSNTCELVFDNCEIHESQIMGGKGKGVYVLMTGLDYERLVLSGGPLGLMQAACDIAFDYAHQRTAFGQKIGSFQLLQGKLADMYTTLNASRSYLYMVAKAADKGNVSNKDCAGVILYVAEKCTQVCLDAIQILGGNGYINDYPAGRLLRDAKLYEIGAGTSEVRRLIIGRALNKEYSN | not soluble
4 | MSALKSFTVNFHQEDNAKATTVHKLSEEDFNKATEKGTRHLFDLDTNVGFFVFFDAEDAEGNDQYLMLQYEGDHEEPTACYGFDLKLYYQFLALYLNDLEFQGETDEEEEEYGPIHHLAHLLYHIVEDGKSIEV | not soluble
5 | MSANQEEDKKPGDGGAHINLKVKGQDGNEVFFRIKRSTQLKKLMNAYCDRQSVDMNSIAFLFDGRRLRAEQTPDELDMEDGDEIDAMLHQTGGSGGGATA | soluble
6 | MSASESDLAIVAEQLGREPRGVIEVSYHTPDGVPGVVMTTPKLDDGTPFPTLYYLTEPRLTAEASRLEVAHVMKWMTDRLHSDEELRQDYERAHEYFLAKRNALEDLGTDFSGGGMPDRVKCLHVLIAYALAEGPDHFRLGTEAVALAADHGGLRGTAIPQDWPTVESLGMSLDQFDFSHADVPGASK | not soluble
7 | MSASLVETVDIEAPVAVTWALWSDVSRWPSFLSHVRLVEPLDERRFAWQLSLPGADKNFVAELTEVIPGDRIAWQTTEGVHHAGVVTFHRLSDTSSRVTLQIEYDPKGFVEHIGALTNLDSTLANYDLGEFQKLAETAAAGLEHHHHHH | not soluble
8 | MSASRQRPGNHLLPTLFDRLCDDAPNQKRDHGISVSPVQIKEIIRRDLSFLLNTVSHEDDIDAARYPYAAASVLNYGLPPLAGSFLYEHKWDDIRRAILRTITRFEPRLKASTLQIIPLQDERRQSGHNTLQFEIRGEILTQPYPTAFRVRSALDMEQSRITFF | not soluble
9 | MSCMGAAVNIITTDGPAGRAGFTASAVCSVTDTPPTLLVCLNRGASVWPVFNENRTLCVNTLSAGQEPLSNLFGGKTPMEHRFAAARWQTGVTGCPQLEEALVSFDCRISQVVSVGTHDILFCAIEAIHRHTTPYGLVWFDRSYHALMRPAC | not soluble
10 | MSCYIYWDKIKRIASRLEGMNYHFDEMDTSGVMPLLDEIEEIAHDSTIDFESAKHILDDAEMNHALSLIRKFYVNLGMKLQMEKAQEVIESDSPWETLRSFYFYPRYLELLKNEAALGRFRRGERAVFIGGGPLPLTGILLSHVYGMRVNVVEIEPDIAELSRKVIEGLGVDGVNVITGDETVIDGLEFDVLMVAALAEPKRRVFRNIHRYVDTETRIIYRTYTGMRAILYAPVSDDDITGFRRAGVVLPSGKVNNTSVLVFKCPDKGELNSKLEGKPIPNPLLGLDSTRTGHHHHHH | soluble
11 | MSDAAKPDRPDEALVLEYDFDAPPAKVWRAVTIPALRERWSPDCDLAGAEPESTIAGEEVRYRLRDSEPPFRESHVIFRIEPNEDGGTRFRIIQQACDDLAKLPQPANTNCRLMMAALEHHHHHH | soluble
12 | MSDDEDEGRLQIDESPSDSEDKPSISAPPPLPPPLQETPEFQTTYDAHDQAETSGKEDGELDEDDENDDIEPMEIDEEIQLEIDEKPEDLVKDEQISEPTDKMREEFLKVEKTDENAVVESTSSFSPKLIDEQDLKVEEMSDEKHAQSPVSSDMTTSKSPTPSKKENGLMKPPQSTEKAQRKRKESTDIFSSEKRKLSLETVASSSSSSGSSNLSTTPQRSKRSSSHMATIAISACFTDEDIVSVPMMPIQKTPDTAPHSKRAKRDIGTNVITTRSTDTSGLLCNEAIMDTPPGSQMTLEVTVMYRTKNSLAFRVKGCDLIGFIGDGLPPMASSLTNNIASSMGNNNNKKKTASSSGNEEGKDGRSSSASSNGRGARGGSVLKDGKGDKQKGKRKKEETNDDDLEDENQNNEQYGSKKCELVEVDVAQLHDCHYDGCEKRFQKTTDLEYHISKNHKRRVMMYESICTQTSISSLETQNNSTQIDDDLPPMPQMPILKKEVPIKTPIGNVYEDLSDDDSETKPTDLVLKTPSSSASSAVATLMGIAQVSSSTTSATTSVVPPVGAQRSTPATPVSAKIGINPSMVANALAEKNKQQQQQQQKLNQLQPPHNPSLSTAPSSSSAQPPTMIQAHPMAGVFIPPPFHPAMMNPQMAAMMDQQRIAVAMSQQQQMSRTPSRQTISVSDSHKIHELAKSRENQQRQQSATPKTPSESVSTTGVVTPQRQFLPPQMMQPGTPQSILLQQQQQQQQQQQQAAAQHQIIQQMQMQMQRGMAPQMANQELLMMMMGMPHMVQGVPGFPGVPQLPPK | soluble
13 | MSDHDRDFDVVVVGGGHNGLVAAAYLARAGLRVRLLERLAQTGGAAVSIQAFDGVEVALSRYSYLVSLLPSRIVADLGAPVRLARRPFSSYTPAPATAGRSGLLIGPTGEPRAAHLAAIGAAPDAHGFAAFYRRCRLVTARLWPTLIEPLRTREQARRDIVEYGGHEAAAAWQAMVDEPIGHAIAGAVANDLLRGVIATDALIGTFARMHEPSLMQNICFLYHLVGGGTGVWHVPIGGMGSVTSALATAAARHGAEIVTGADVFALDPDGTVRYHSDGSDGAEHLVRGRFVLVGVTPAVLASLLGEPVAALAPGAQVKVNMVVRRLPRLRDDSVTPQQAFAGTFHVNETWSQLDAAYSQAASGRLPDPLPCEAYCHSLTDPSILSARLRDAGAQTLTVFGLHTPHSVFGDTEGLAERLTAAVLASLNSVLAEPIQDVLWTDAQSKPCIETTTTLDLQRTLGMTGGNIFHGALSWPFADNDDPLDTPARQWGVATDHERIMLCGSGARRGGAVSGIGGHNAAMAVLACLASRRKSPLEHHHHHH | not soluble
14 | MSDLHTKLGSGMNKLQEGIEQGKMKLQVAQEIAQLKKGMQVQMQKKAEVLLEVGQQVYVQLRGSGVNEASLKEMIAPVQEFDVAIYQARKRIVELQKQQGEKATCECGGPLSINDKFCGSCGKPNPMLTVENEGETVNCISCNEHIDKNSTYCPVCGIKQSGE | not soluble
